This passage reports self-cleavage results from the RNAGym collection of RNA variant scans (doi:10.7554/elife.90254).

B1: OR4K15 (parent)
chain: GUUAACGGUCAUAGGCCAUGGAAACUAGGAGCACCAUUUCGCUGCCAGUGAAGAAAUGAACAAAGAAAAUCUGGGCCAGGCAGGCAUCAAAAGAAAUAGUCUUGCGCUCAACCAGAAAGUCUGUAAUCAUUUUAAGGGUA

In the data set the parent is B1. Put plainly: self-cleavage, relative activity (ratio to wild type); higher = more cleavage; in vitro, sequencing; the parent is a self-cleaving ribozyme.
For GUUAACGGUCAUAGGCCAUGGAAACUAGGAGCACCAUUUCGCUGCCAGUGAAGAAGUGAACAAAGAAAACCUGGGCCAGGCAGGCAUCAAAAGAAAUAGUCUUGCGCUCAACCAGAAAGUCUGUAAUCAUUUUAAGGGUA, the self-cleavage came out at 0.95.

GUUAACGGUCAUAGGCCAUGGAAACUAGGAGCACCAUUUCGCUGCCAGUGAAGAAGUGAACAAAGAAAAACUGGGCCAGGCAGGCAUCAAAAGAAAUAGUCUUGCGCUCAACCAGAAAGUCUGUAAUCAUUUUAAGGGUA: the self-cleavage is 1.49.

GUUAACGGUCAUAGGCCAUGGAAACUAGGAGCACCAUUUCGCUGCCAGUGAAGAAGUGAACAAAGAAAAUCUGGCCCAGGCAGGCAUCAAAAGAAAUAGUCUUGCGCUCAACCAGAAAGUCUGUAAUCAUUUUAAGGGUA: the self-cleavage is 0.19.

Take GUUAACGGUCAUAGGCCAUGGAAACUAGGAGCACCAUUUCGCUGCCAGUGAAGAAGUGAACAAAGAAAAUCUGGGCCAGGCAGGCAUCAAAAGAAAUAGUCUUGCGCUCAACCAGAAAGUCUGUAAUCAUUUUGAGGGUA: the self-cleavage turned out to be 1.2.

With GUUAACGGUCAUAGGCCAUGGAAACUAGGAGCACCAUUUCGCUGCCAGUGAAGAAGUGAACAAAGAAAAUCUGGGCCAGGCAGGCAUCACAAGAAAUAGUCUUGCGCUCAACCAGAAAGUCUGUAAUCAUUUUAAGGGUA, the self-cleavage is 0.21.

As for GUUAACGGUCAUAGGCCAUGGAAACUAGGAGCACCAUUUCGCUGCCAGUGAAGAAGUGAACAAAGAAAAUCUGGGCCAGGCAGGCAUCAUAAGAAAUAGUCUUGCGCUCAACCAGAAAGUCUGUAAUCAUUUUAAGGGUA, the self-cleavage was 1.83.

As to GUUAACGGUCAUAGGCCAUGGAAACUAGGAGCACCAUUUCGCUGCCAGUGAAGAAGUGAACAAAGAAAAUCUGGGCCAGGCAGGCAUCAAAAGAAAUAGUCUUGCGCUCAACCAGAACGUCUGUAAUCAUUUUAAGGGUA, the self-cleavage worked out at 0.64.

As to GUUAACGGUCAUAGGCCAUGGAAACUAGGAGCACCAUUUCGCUGCCAGUGAAGAAGUGAACAAAGAAAAUCUGGGCCAGGCAAGCAUCAAAAGAAAUAGUCUUGCGCUCAACCAGAAAGUCUGUAAUCAUUUUAAGGGUA, the self-cleavage worked out at 1.67.

Turning to GUUAACGGUCAUAGGCCAUGGAAACUAGGAGCACCAUUUCGCUGCCAGUGAAGAAGUGAACAAAGAAAAUCUGGGCCAGGCAGGCAUCAAAAGAAAUAGUCUUGCGCUCAACCAGAAAGUCUGUAAUCAUUUUAAGGGUG, the self-cleavage stood at 1.78.

As to GUUAACGGUCAUAGGCCAUGGAAACUAGGAGCACCAUUUCGCUGCCAGUGAAGAAGUGAACAAAGAAAAUCUGGGCCAGGCAGGCAUCAAAAGAAAUAGUCUUGCGCUCAACUAGAAAGUCUGUAAUCAUUUUAAGGGUA, the self-cleavage is 0.08.

Consider GUUAACGGUCAUAGGCCAUGGAAACUAGGAGCACCAUUUCGCUGCCAGUGAAGAAGUGAACAAAGAAAAUCUGGGCCAGGCAGGCAUCAAUAGAAAUAGUCUUGCGCUCAACCAGAAAGUCUGUAAUCAUUUUAAGGGUA, for which the self-cleavage is 1.21.

For the variant GUUAACGGUCAUAGGCCAUGGAAACUAGGAGCACCAUUUCGCUGCCAGUGAAGAAGUGAACAAAGAAAAUCUGGGCCAGGCAGGCAUCAAGAGAAAUAGUCUUGCGCUCAACCAGAAAGUCUGUAAUCAUUUUAAGGGUA, the self-cleavage is 0.51.

Regarding GUUAACGGUCAUAGGCCAUGGAAACUAGGAGCACCAUUUCGCUGCCAGUGAAGAAGUGAACAAAGAAAAUCUGGGCCAGGCAGGCAUCAAAAGAAAUAGUCUUGCGCUCAACCAGAAAGUCUGUAAUCAUUUUAGGGGUA, the self-cleavage was 1.61.

Turning to GUUAACGGUCAUAGGCCAUGGAAACUAGGAGCACCAUUUCGCUGCCAGUGAAGAAGUGAACAAAGAAAAUCUGGGCCAGGCAGGCAUCAAAAGAAAUAGUCUUGCGCUCAACCAGAAAGUCUGUAAUCAUUUUAUGGGUA, the self-cleavage worked out at 0.62.

Take GUUAACGGUCAUAGGCCAUGGAAACUAGGAGCACCAUUUCGCUGCCAGUGAAGAAGUGAACAAAGAAAGUCUGGGCCAGGCAGGCAUCAAAAGAAAUAGUCUUGCGCUCAACCAGAAAGUCUGUAAUCAUUUUAAGGGUA: the self-cleavage came out at 1.08.

Take GUUAACGGUCAUAGGCCAUGGAAACUAGGAGCACCAUUUCGCUGCCAGUGAAGAAGUGAACAAAGAAAAUCUGGGCCAGGCAGGCAUCAAAAGAAAUUGUCUUGCGCUCAACCAGAAAGUCUGUAAUCAUUUUAAGGGUA: the self-cleavage turned out to be 2.25.

Turning to GUUAACGGUCAUAGGCCAUGGAAACUAGGAGCACCAUUUCGCUGCCAGUGAAGAAGUGAACAAAGAAAAUCUGGGCCAGGCAGGCAUCAAAAGAAAUGGUCUUGCGCUCAACCAGAAAGUCUGUAAUCAUUUUAAGGGUA, the self-cleavage was 0.57.

In the case of GUUAACGGUCAUAGGCCAUGGAAACUAGGAGCACCAUUUCGCUGCCAGUGAAGAAGUGAACAAAGAAAAUCUGGGCCAGGCAGGCAUCAAAAGAAGUAGUCUUGCGCUCAACCAGAAAGUCUGUAAUCAUUUUAAGGGUA, the self-cleavage was 1.68.

With GUUAACGGUCAUAGGCCAUGGAAACUAGGAGCACCAUUUCGCUGCCAGUGAAGAAGUGAACAAAGAAAAUCUGGGCCAGGCAGGCAUCAAAAGAAAUAGUCUUGCGCUCAACCAGAUAGUCUGUAAUCAUUUUAAGGGUA, the self-cleavage was 1.27.

Regarding GUUAACGGUCAUAGGCCAUGGAAACUAGGAGCACCAUUUCGCUGCCAGUGAAGAAGUGAACAAAGAAAAUCUGGGCCAGGCAGGCAUCAAAAGAAAUAGUCUUGCGCUAAACCAGAAAGUCUGUAAUCAUUUUAAGGGUA, the self-cleavage amounted to 0.34.

With GUUAACGGUCAUAGGCCAUGGAAACUAGGAGCACCAUUUCGCUGCCAGUGAAGAAGUGAACAAAGAAAAUCUGGGCCAGGCAGGCAUCAAAAGGAAUAGUCUUGCGCUCAACCAGAAAGUCUGUAAUCAUUUUAAGGGUA, the self-cleavage was 1.29.

Regarding GUUAACGGUCAUAGGCCAUGGAAACUAGGAGCACCAUUUCGCUGCCAGUGAAGAAGUGAACAAAGAAAAUCUGGGCCAGGCAGGCAUCAAAAGAAAUAGUCUUGCGCUCAACCAGAAAGUCUGUAAUCAUUUUAAAGGUA, the self-cleavage was 1.69.

Turning to GUUAACGGUCAUAGGCCAUGGAAACUAGGAGCACCAUUUCGCUGCCAGUGAAGAAGUGAACAAAGAAUAUCUGGGCCAGGCAGGCAUCAAAAGAAAUAGUCUUGCGCUCAACCAGAAAGUCUGUAAUCAUUUUAAGGGUA, the self-cleavage amounted to 1.86.

As to GUUAACGGUCAUAGGCCAUGGAAACUAGGAGCACCAUUUCGCUGCCAGUGAAGAAGUGAACAAAGAAAAUCUGGGCCAGGCAGGCAUCAAAAGAAAUAGUCUUGCGCUCAACCAGUAAGUCUGUAAUCAUUUUAAGGGUA, the self-cleavage came out at 0.56.

Take GUUAACGGUCAUAGGCCAUGGAAACUAGGAGCACCAUUUCGCUGCCAGUGAAGAAGUGAACAAAGAAAAUCUGGGCCAGGCAGGCAUUAAAAGAAAUAGUCUUGCGCUCAACCAGAAAGUCUGUAAUCAUUUUAAGGGUA: the self-cleavage is 1.72.

Take GUUAACGGUCAUAGGCCAUGGAAACUAGGAGCACCAUUUCGCUGCCAGUGAAGAAGUGAACAAAGAAAAUCUGGGCCAGGCAGGCAUCAAAAGAAAUAGUCUUGCGCUCUACCAGAAAGUCUGUAAUCAUUUUAAGGGUA: the self-cleavage amounted to 1.05.

GUUAACGGUCAUAGGCCAUGGAAACUAGGAGCACCAUUUCGCUGCCAGUGAAGAAGUGAACAAAGAAAAUCUGGGCCAGGCAGGCAUCAAAAGAAAUAGUCUUGCGCUCAACCAGAAAGUCUGUAUUCAUUUUAAGGGUA: the self-cleavage came to 0.95.

As for GUUAACGGUCAUAGGCCAUGGAAACUAGGAGCACCAUUUCGCUGCCAGUGAAGAAGUGAACAAAGAAAAUCUGGGUCAGGCAGGCAUCAAAAGAAAUAGUCUUGCGCUCAACCAGAAAGUCUGUAAUCAUUUUAAGGGUA, the self-cleavage worked out at 0.14.

GUUAACGGUCAUAGGCCAUGGAAACUAGGAGCACCAUUUCGCUGCCAGUGAAGAAGUGAACAAAGAAAAUCUGGGCCAGGCAGGCAUCAAAAGAAAUAGUCUUGUGCUCAACCAGAAAGUCUGUAAUCAUUUUAAGGGUA: the self-cleavage is 0.12.

Take GUUAACGGUCAUAGGCCAUGGAAACUAGGAGCACCAUUUCGCUGCCAGUGAAGAAGUGAACAAAGAAAAUCUGGGCCAGGCAGGCAUCAAAAGAAAUACUCUUGCGCUCAACCAGAAAGUCUGUAAUCAUUUUAAGGGUA: the self-cleavage was 0.2.

Take GUUAACGGUCAUAGGCCAUGGAAACUAGGAGCACCAUUUCGCUGCCAGUGAAGAAGUGAACAAAGAAAAUCCGGGCCAGGCAGGCAUCAAAAGAAAUAGUCUUGCGCUCAACCAGAAAGUCUGUAAUCAUUUUAAGGGUA: the self-cleavage is 0.28.

In the case of GUUAACGGUCAUAGGCCAUGGAAACUAGGAGCACCAUUUCGCUGCCAGUGAAGAAGUGAACAAAGAAAAUCAGGGCCAGGCAGGCAUCAAAAGAAAUAGUCUUGCGCUCAACCAGAAAGUCUGUAAUCAUUUUAAGGGUA, the self-cleavage was determined as 0.26.

In the case of GUUAACGGUCAUAGGCCAUGGAAACUAGGAGCACCAUUUCGCUGCCAGUGAAGAAGCGAACAAAGAAAAUCUGGGCCAGGCAGGCAUCAAAAGAAAUAGUCUUGCGCUCAACCAGAAAGUCUGUAAUCAUUUUAAGGGUA, the self-cleavage turned out to be 1.27.

For GUUAACGGUCAUAGGCCAUGGAAACUAGGAGCACCAUUUCGCUGCCAGUGAAGAAGUGAACAAAGAAAAUCUGGGCCAGGCAGGCAUCAAAAGAAAUAGUCUUGCGCUCAUCCAGAAAGUCUGUAAUCAUUUUAAGGGUA, the self-cleavage was 0.

Turning to GUUAACGGUCAUAGGCCAUGGAAACUAGGAGCACCAUUUCGCUGCCAGUGAAGAAGUGAACAAAGAAAAUCUGGGCCAGGCAGGCAGCAAAAGAAAUAGUCUUGCGCUCAACCAGAAAGUCUGUAAUCAUUUUAAGGGUA, the self-cleavage is 0.32.

On to GUUAACGGUCAUAGGCCAUGGAAACUAGGAGCACCAUUUCGCUGCCAGUGAAGAAGUGAACAAAGAAAAUCUGGGCCAGGCAGGCACCAAAAGAAAUAGUCUUGCGCUCAACCAGAAAGUCUGUAAUCAUUUUAAGGGUA, for which the self-cleavage was found to be 0.74.

Turning to GUUAACGGUCAUAGGCCAUGGAAACUAGGAGCACCAUUUCGCUGCCAGUGAAGAAGUGAACAAAGAAAAUCUGGGCCAGGCAGGCAUCGAAAGAAAUAGUCUUGCGCUCAACCAGAAAGUCUGUAAUCAUUUUAAGGGUA, the self-cleavage was determined as 1.5.

As for GUUAACGGUCAUAGGCCAUGGAAACUAGGAGCACCAUUUCGCUGCCAGUGAAGAAGUGAACAAAGAAAAUCUGGGCCAGGCAGGCAUCAAAAGAAAUAGUAUUGCGCUCAACCAGAAAGUCUGUAAUCAUUUUAAGGGUA, the self-cleavage was 0.12.

In the case of GUUAACGGUCAUAGGCCAUGGAAACUAGGAGCACCAUUUCGCUGCCAGUGAAGAAGUGAACAAAGAAAAUCUGGGCCAGGCUGGCAUCAAAAGAAAUAGUCUUGCGCUCAACCAGAAAGUCUGUAAUCAUUUUAAGGGUA, the self-cleavage was determined as 0.23.

With GUUAACGGUCAUAGGCCAUGGAAACUAGGAGCACCAUUUCGCUGCCAGUGAAGAAGUGAACAAAGAAAAUCUGGGCCAGGCGGGCAUCAAAAGAAAUAGUCUUGCGCUCAACCAGAAAGUCUGUAAUCAUUUUAAGGGUA, the self-cleavage came out at 0.56.

Turning to GUUAACGGUCAUAGGCCAUGGAAACUAGGAGCACCAUUUCGCUGCCAGUGAAGAAGUGAACAAAGAAAAUCUGGGCCAGGCCGGCAUCAAAAGAAAUAGUCUUGCGCUCAACCAGAAAGUCUGUAAUCAUUUUAAGGGUA, the self-cleavage was 0.15.
